Where “and” joins values, the source holds several entries; their conditions need not be identical. Equal values may be shown once.
Tests used:
[1] = Maximal solubility of inhibitor stock; type: physicochemical; conditions: dissolved in DMSO
hPHGDH [2] = molecular target: T1, hPHGDH (Homo sapiens, UniProt O43175); assay: Inhibition of hPHGDH activity by inhibitors (hydrazine assay); type: biochemical; parameters: His-tagged full-length hPHGDH was expressed in BL21(DE3) E. coli cells; made in house; host or cells: E. coli BL21(DE3); conditions: kinetics on 3PG at increasing inhibitor concentration
T1 sequence (O43175 1-533): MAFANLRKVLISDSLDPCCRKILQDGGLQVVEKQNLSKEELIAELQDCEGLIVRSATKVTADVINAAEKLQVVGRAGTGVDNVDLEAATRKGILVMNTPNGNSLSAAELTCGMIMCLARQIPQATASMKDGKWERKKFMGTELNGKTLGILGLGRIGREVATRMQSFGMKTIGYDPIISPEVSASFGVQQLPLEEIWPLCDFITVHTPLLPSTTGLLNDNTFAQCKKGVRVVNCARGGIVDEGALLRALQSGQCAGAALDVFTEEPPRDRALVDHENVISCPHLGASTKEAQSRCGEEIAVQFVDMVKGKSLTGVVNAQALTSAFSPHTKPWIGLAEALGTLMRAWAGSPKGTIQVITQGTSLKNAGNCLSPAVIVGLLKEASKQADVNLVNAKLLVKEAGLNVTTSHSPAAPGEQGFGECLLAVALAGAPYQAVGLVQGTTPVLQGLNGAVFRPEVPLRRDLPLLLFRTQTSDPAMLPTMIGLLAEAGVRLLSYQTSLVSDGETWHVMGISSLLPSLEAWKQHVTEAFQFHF

hPHGDH [3] = molecular target: T1, hPHGDH; assay: hPHGDH reverse reaction kinetics (decrease in NADH fluorescence at 450 nm); conditions: for kcat: per monomer
Source text: The latter assay was used to determine the apparent kinetic parameters on alternative substrates.

M. tuberculosis PHGDH = conditions: reverse reaction; cited from earlier work
E. coli PHGDH = conditions: reverse reaction; cited from earlier work
hPHGDH [4] = molecular target: T1, hPHGDH; assay: Effect of salts, phosphate and serine synthesis metabolites on hPHGDH activity (hydrazine assay); type: biochemical; parameters: His-tagged full-length hPHGDH was expressed in BL21(DE3) E. coli cells; made in house; host or cells: E. coli BL21(DE3); conditions: up to 50 mM final concentration
Source text: The effects of KCl, NaCl, MgCl2 and CaCl2 and of pH and temperature on enzyme activity and stability were investigated using the hydrazine assay. […] The dependence of activity on pH was fitted using an equation for three pKa values, according to [44], providing apparent values unrelated to microscopic ones.

truncated hPHGDH form = molecular target: truncated hPHGDH form; parameters: method as in PMID 29262655; conditions: isothermal calorimetry; cited from earlier work
hPHGDH [5] = molecular target: T1, hPHGDH; assay: Ligand binding by quenching of protein fluorescence at 330 nm
Experimental: Protein fluorescence spectra were measured at 0.06–0.1 mg/mL protein concentration in 10 mM potassium phosphate, pH 7.0, 15 °C; spectra were recorded using a Jasco FP-750 instrument and were corrected for the buffer contribution. Protein fluorescence spectra were recorded between 300 and 450 nm, with excitation at 280 and 298 nm.
All recorded spectra were subtracted for the contribution of the ligand (added to the buffer only) and were corrected for dilution at every addition. […] In all cases, Kd values were determined by fitting the data to a hyperbolic function.

hPHGDH [6] = molecular target: T1, hPHGDH; assay: Temperature-ramp unfolding (melting temperature) with cofactors; type: binding; parameters: His-tagged full-length hPHGDH was expressed in BL21(DE3) E. coli cells; made in house; host or cells: E. coli BL21(DE3)
Experimental: Temperature-ramp experiments were performed in 10 mM potassium phosphate, pH 7.0. For this, a software-driven, Peltier-equipped fluorimeter was used to measure the protein fluorescence change at 330 nm or a CD spectropolarimeter to follow the CD signal at 280 nm in order to reproduce a temperature gradient (0.5 °C/min) [31].

[7] = substrate: NC(=O)c1ccc[n+]([C@@H]2O[C@H](COP(=O)(O)OP(=O)(O)OC[C@H]3O[C@@H](n4cnc5c(N)ncnc54)[C@H](O)[C@@H]3O)[C@@H](O)[C@H]2O)c1; assay: purified protein, by the assay type; type: biochemical, human; conditions: 2.5 mM 3PG, pH 7.0; for Km: other: NAD+ varied, Figure S3C
Experimental: (§1) PSAT was added to drive the reaction and to avoid product inhibition of hPHGDH.

[8] = substrate: O=C(O)CC(O)C(=O)O; assay: purified protein, by the assay type; type: biochemical, human; conditions: hydrazine assay, pH 7.0
Experimental: as §1

[9] = substrate: CC(O)CC(=O)O; assay: purified protein, by the assay type; conditions: hydrazine assay, pH 7.0
[10] = substrate: C[C@@H](O)C(=O)O; assay: purified protein, by the assay type; conditions: other: forward reaction, substrate varied, 1.5 mM NAD^+, hydrazine assay, 37 °C, pH 7.0, per monomer
[11] = substrate: NC(=O)C1=CN([C@@H]2O[C@H](COP(=O)(O)OP(=O)(O)OC[C@H]3O[C@@H](n4cnc5c(N)ncnc54)[C@H](O)[C@@H]3O)[C@@H](O)[C@H]2O)C=CC1; assay: purified protein, by the assay type; conditions: other: reverse reaction, NADH varied, 0.5 mM PHP, 37 °C, pH 7.0
[12] = substrate: O=C(O)C(=O)COP(=O)(O)O; assay: purified protein, by the assay type; conditions: pH 7.0
[13] = substrate: O=C(O)C(O)C(O)C(=O)O; assay: purified protein, by the assay type; conditions: other: forward reaction, substrate varied, 1.5 mM NAD^+, hydrazine assay, 37 °C, pH 7.0
[14] = substrate: O=C(O)C(O)COP(=O)(O)O; assay: purified protein, by the assay type; conditions: pH 7.0
[15] = substrate: O=C(O)CC(=O)C(=O)O; assay: purified protein, by the assay type; conditions: other: reverse reaction, substrate varied, 5 mM NADH, 37 °C, pH 7.0
[16] = molecular target: the molecule itself; assay: SEC; Superdex 200 Increase column, potassium phosphate pH 7.0 (20 mM with 0.15 M NaCl); major peak approx. 240 kDa; monomers to tetramer
[17] = molecular target: the molecule itself; assay: SEC; Superdex 200 Increase column, increasing potassium phosphate pH 7.0 (100, 250, 500 mM; 0.15 M NaCl added at 100 mM); minor peak ~480 kDa confirmed by anti-His Western blot; tetramers to octamer
[18] = reverse reaction, NADH varied, 0.5 mM PHP, 37 °C, pH 7.0
[19] = other: forward reaction, substrate varied, […] NAD^+, 37 °C
[20] = other: forward reaction, substrate varied, 1.5 mM NAD^+, 37 °C
[21] = other: reverse reaction (discussion value)
[22] = other: reverse reaction, substrate varied, 150 µM NADH, 37 °C
[23] = other: reverse reaction, substrate varied, 5 mM NADH, 37 °C
[24] = other: forward reaction, substrate varied, 120 µM NAD^+, PSAT-coupled (1) and hydrazine (2) assays, 37 °C
[25] = other: forward reaction, substrate varied, 1.5 mM NAD^+, hydrazine assay, 37 °C

## CBR-5884
[1]
  maximal solubility: ≤ 1000 µM
hPHGDH [2]
  mechanism of inhibition: noncompetitive inhibition mechanism

## O=C(O)C(=O)COP(=O)(O)O [PHP, 3-phosphohydroxypyruvate]
hPHGDH [3]; Ki (substrate inhibition), reverse reaction, 150 µM NADH, 37 °C, pH 7.0
  Ki: 2230 µM
hPHGDH [3]; Ki (substrate inhibition), reverse reaction, 5 mM NADH, 37 °C, pH 7.0
  Ki: 1260 µM
hPHGDH [3]; Ki of fit with substrate inhibition, reverse reaction, 150 µM NADH, Figure S4A
  Ki: 2230 µM
hPHGDH [3]; Ki of fit with substrate inhibition, reverse reaction, 5 mM NADH, Figure S4A,C,D
  Ki: 1260 µM
hPHGDH [3]; higher than for the forward reaction on 3PG
  kinetic efficiency kcat/Km ratio, reverse reaction vs forward reaction on 3PG: 20 fold
hPHGDH [3]; reverse reaction, 150 µM NADH, Figure S4A
  maximal rate of fit with substrate inhibition: 1.2871
hPHGDH [3]; reverse reaction, 5 mM NADH, Figure S4A,C,D
  maximal rate of fit with substrate inhibition: 2.282
hPHGDH [3]; reverse reaction, substrate varied, 150 µM NADH, 37 °C, pH 7.0
  kcat: 1.3 s⁻¹
M. tuberculosis PHGDH
  Km: 85 µM
E. coli PHGDH
  Km: 40 µM
hPHGDH [4]
  effect on hPHGDH activity on […] 3PG: not affected

## NC(=O)C1=CN([C@@H]2O[C@H](COP(=O)(O)OP(=O)(O)OC[C@H]3O[C@@H](n4cnc5c(N)ncnc54)[C@H](O)[C@@H]3O)[C@@H](O)[C@H]2O)C=CC1 [NADH]
hPHGDH [3]; [18]
  Km: 560 µM
  kcat: 3.4 s⁻¹
hPHGDH [3]; reverse reaction, NADH varied, 0.5 mM PHP, Figure S4B
  maximal rate of Michaelis–Menten fit: 3.3684
Truncated hPHGDH form
  Kd: 0.2 µM
hPHGDH [5]; Kd (NAD^+; main phase of NADH binding), discussion value
  Kd: ~130 µM
hPHGDH [5]; Kd, first phase, free enzyme, 15 °C
  Kd: 0.49 ± 0.03 µM
hPHGDH [5]; Kd, second phase, free enzyme, 15 °C
  Kd: 168 µM and 169 µM
hPHGDH [5]; free enzyme
  amplitude of protein fluorescence quenching, first phase: ~35%
  amplitude of protein fluorescence quenching, second phase: 65%
hPHGDH [6]; 120 µM NAD^+ or 100 µM NADH, protein alone 47.5
  Tm, circular dichroism signal at 280 nm: 51.0 °C
hPHGDH [6]; +120 μM NAD^+ or +100 μM NADH, hPHGDH alone 47.2 ± 0.5
  Tm, CD (220 nm): 51.0 ± 0.3 °C
hPHGDH [6]; +120 μM NAD^+ or +100 μM NADH, hPHGDH alone 48.4 ± 2.1
  Tm, Fluorescence (330 nm): 55.7 °C and 55.7 ± 0.1 °C

B1: recombinant human D-3-phosphoglycerate dehydrogenase, His-tagged, full length (enzyme, UniProt O43175 1-533, looked up)
chain: T1 sequence (O43175 1-533)
notes: D-3-phosphoglycerate dehydrogenase, human, 533 amino acids; synthetic gene back-translated from GenBank CAG33076.1, codon-optimised for E. coli, cloned in pETM11 (NcoI/XhoI); The N-terminal 6xHis tag of pETM11 can be cut by TEV protease, but no cleavage is reported; the tagged monomer has a theoretical mass of 59.776 kDa and was detected with an anti-His antibody in the SEC peaks; Tetramer in …
[7]; PSAT-coupled assay
  Km: 133 µM
[7]; hydrazine assay
  Km: 162 µM
[7]; other: forward reaction, NAD^+ varied, assays 1,2, 37 °C
  kcat/Km: 15100 M⁻¹ s⁻¹
[8]; [19]
  Km: 4480 ± 870 µM
  kcat: 0.44 ± 0.01 s⁻¹
  kcat/Km: 98 M⁻¹ s⁻¹
[8]; other: substrate varied, […] NAD+, Figure S3B,D-F
  Km: 4480 µM
[9]; [20]
  Km: 41000 ± 19000 µM
  kcat: 2.53 s⁻¹
  kcat/Km: 61 M⁻¹ s⁻¹
[9]; other: substrate varied, 1.5 mM NAD+, Figure S3B,D-F, 37.0 °C
  Km: 41800 µM
[10]
  kcat: 5.41 s⁻¹
  kcat/Km: 36 M⁻¹ s⁻¹
[11]
  Km: 559 ± 75 µM
  kcat: 3.37 s⁻¹
  kcat/Km: 6000 M⁻¹ s⁻¹
[12]; [21]
  Km: 10 µM
  kcat: 2.28 ± 0.14 s⁻¹
  kcat/Km: 228000 M⁻¹ s⁻¹
[12]; other: reverse reaction, 150 µM NADH, Figure S4A
  Km: 14.1 µM
[12]; other: reverse reaction, 5 mM NADH, Figure S4A,C,D
  Km: 10.2 µM
[12]; [22]
  Km: 0.014 ± 0.003 [Ki = 2.23 ± 0.37] mM
  kcat: 1.29 ± 0.09 s⁻¹
  kcat/Km: 91100 M⁻¹ s⁻¹
[12]; [23]
  Km: 0.010 ± 0.003 [Ki = 1.26 ± 0.25] mM
  kcat: 2.28 ± 0.14 s⁻¹
  kcat/Km: 228000 M⁻¹ s⁻¹
[13]
  Km: 5550 ± 2730 µM
  kcat: 0.41 s⁻¹
  kcat/Km: 74 M⁻¹ s⁻¹
[14]; other: 3PG varied, 120 µM NAD+, PSAT-coupled assay, Figure S3A, 37.0 °C
  Km: 252 µM
[14]; other: 3PG varied, 120 µM NAD+, hydrazine assay, Figure S3A, 37.0 °C
  Km: 317 µM
[14]; [24]
  Km: 255 ± 59 µM
  kcat: 1.48 s⁻¹
  kcat/Km: 5800 M⁻¹ s⁻¹
[14]; [25]
  Km: 360 ± 61 µM
  kcat: 2.97 s⁻¹
  kcat/Km: 8250 M⁻¹ s⁻¹
[14]; other: substrate varied, 1.5 mM NAD+, hydrazine assay, Figure S3B,D-F, 37.0 °C
  Km: 359 µM
[15]
  Km: 0.90 ± 0.42 [Ki = 152 ± 56] mM
  kcat: 1.76 ± 0.20 s⁻¹
  kcat/Km: 1960 M⁻¹ s⁻¹
[16]
  stoichiometry N: 4
[17]
  stoichiometry N: 8
